Earlier results on one substance are cited in article PMC3439503.

The Kd is the free concentration of one partner at which half of the binding sites on the other are occupied at equilibrium, for simple one-to-one binding.

This series concerns the target dystrophin N-ABD N-ABD (Homo sapiens) (UniProt P11532).

For “dystrophin N-ABD N-ABD (from UniProt P11532)”, the Kd was 4 µM.
